According to PMC9352680, “A comprehensive thermodynamic model for RNA binding by the Saccharomyces cerevisiae Pumilio protein PUF4”:
Numbering of substitutions follows the chain as printed. Names may count otherwise.

T1: PUF4 RNA-binding domain (Saccharomyces cerevisiae, UniProt P25339 537-888)
T1 sequence: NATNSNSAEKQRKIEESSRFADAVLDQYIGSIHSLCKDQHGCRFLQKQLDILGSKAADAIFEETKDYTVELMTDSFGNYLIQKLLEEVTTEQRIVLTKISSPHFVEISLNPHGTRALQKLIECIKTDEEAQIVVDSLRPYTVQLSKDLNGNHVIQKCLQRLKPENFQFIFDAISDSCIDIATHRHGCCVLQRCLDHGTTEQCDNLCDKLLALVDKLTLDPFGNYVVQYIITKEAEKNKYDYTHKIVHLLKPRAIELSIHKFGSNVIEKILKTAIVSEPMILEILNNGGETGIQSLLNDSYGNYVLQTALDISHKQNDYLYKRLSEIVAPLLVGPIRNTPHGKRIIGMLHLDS

B1: Ib_S4_P4E.1_K4.1_C4.1_H4.1_A4.1_[A6C]_[T7A]_F4.1_T4.1 (ssRNA)
RNA: UUUGACAACUGAUCGUUCUUUCUUGUAUCAUAUUCUUUCUCGAUCAGUUGUCUUU
B2: Ia_S4_P4E.1_K4.1_C4.1_H4.1_[G2T]_A4.1_F4.1_T4.1 (ssRNA)
RNA: B1 RNA with G25U, C29A, A30U
B3: Ia_S4_P4E.1_K4.1_C4.1_H4.1_[G2A]_A4.1_F4.1_T4.1 (ssRNA)
RNA: B1 RNA with G25A, C29A, A30U
B4: Ib_S4_P4E.1_K4.1_C4.1_H4.1_A4.1_[A6T]_[T7A]_F4.1_T4.1 (ssRNA)
RNA: B1 RNA with C29U
B5: Ib_S4_P4E.1_K4.1_C4.1_H4.1_A4.1_[A6T]_[T7G]_F4.1_T4.1 (ssRNA)
RNA: B1 RNA with C29U, A30G
B6: Ia_S4_P4E.1_K4.1_C4.1_H4.1_[A4G]_A4.1_F4.1_T4.1 (ssRNA)
RNA: B1 RNA with A27G, C29A, A30U
B7: Ic_S4_P4E.1_K4.1_C4.1_H4.1_A4.1_[A6T]_[T7C]_F4.1_T4.1 (ssRNA)
RNA: B1 RNA with C29U, A30C
B8: Ia_S4_P4E.1_K4.1_C4.1_H4.1_[T3C]_A4.1_F4.1_T4.1 (ssRNA)
RNA: B1 RNA with U26C, C29A, A30U
B9: Ib_S4_P5E.1_K5.1_C5.1_H5.1_A5.1_F5.1_[T8G]_[A10G]_T5.1 (ssRNA)
RNA: UUUGACAACUGAUCGUUCUUUCUUGUAUUAGUGUUCUUUCUCGAUCAGUUGUCUUU
B10: Ib_S4_P5E.1_K5.1_C5.1_H5.1_[T1C]_A5.1_F5.1_[A10C]_T5.1 (ssRNA)
RNA: B9 RNA with U24C, G31U, G33C
B11: Ib_S4_P5E.1_K5.1_C5.1_H5.1_A5.1_[T6A]_F5.1_[T8C]_T5.1 (ssRNA)
RNA: B9 RNA with U29A, G31C, G33A
B12: Ib_S4_P5E.1_K5.1_C5.1_H5.1_[T3C]_A5.1_F5.1_[T8C]_T5.1 (ssRNA)
RNA: B9 RNA with U26C, G31C, G33A
B13: Ic_S4_P5E.1_K5.1_C5.1_H5.1_A5.1_[T5C]_F5.1_[T8C]_T5.1 (ssRNA)
RNA: B9 RNA with U28C, G31C, G33A
B14: Ib_S4_P5E.1_K5.1_C5.1_H5.1_[T1C]_A5.1_F5.1_[T8C]_T5.1 (ssRNA)
RNA: B9 RNA with U24C, G31C, G33A
B15: Ib_S4_P5E.1_K5.1_C5.1_H5.1_A5.1_[A7C]_F5.1_[T8G]_T5.1 (ssRNA)
RNA: B9 RNA with A30C, G33A
B16: Ib_S4_P5E.1_K5.1_C5.1_H5.1_A5.1_[A7T]_F5.1_[T8G]_T5.1 (ssRNA)
RNA: B9 RNA with A30U, G33A
B17: Ib_S4_P5E.1_K5.1_C5.1_H5.1_[A4C]_A5.1_F5.1_[T9A]_T5.1 (ssRNA)
RNA: B9 RNA with A27C, G31U, U32A, G33A
B18: Ib_S4_P5E.1_K5.1_C5.1_H5.1_[G2A]_A5.1_F5.1_[A10T]_T5.1 (ssRNA)
RNA: B9 RNA with G25A, G31U, G33U
B19: Ib_S4_P5E.1_K5.1_C5.1_H5.1_[A4C]_A5.1_F5.1_[A10C]_T5.1 (ssRNA)
RNA: B9 RNA with A27C, G31U, G33C
B20: Ib_S4_P5E.1_K5.1_C5.1_H5.1_[A4T]_A5.1_F5.1_[A10T]_T5.1 (ssRNA)
RNA: B9 RNA with A27U, G31U, G33U
B21: Ib_S4_P5E.1_K5.1_C5.1_H5.1_[A4T]_A5.1_F5.1_[T9A]_T5.1 (ssRNA)
RNA: B9 RNA with A27U, G31U, U32A, G33A
B22: Ib_S4_P5E.1_K5.1_C5.1_H5.1_[G2A]_A5.1_F5.1_[T8A]_T5.1 (ssRNA)
RNA: B9 RNA with G25A, G31A, G33A
B23: Ib_S4_P5E.1_K5.1_C5.1_H5.1_[G2C]_A5.1_F5.1_[T8C]_T5.1 (ssRNA)
RNA: B9 RNA with G25C, G31C, G33A
B24: Ib_S4_P5E.1_K5.1_C5.1_H5.1_A5.1_F5.1_[T8A]_[A10G]_T5.1 (ssRNA)
RNA: B9 RNA with G31A
B25: Ib_S4_P5E.1_K5.1_C5.1_H5.1_A5.1_[T5G]_F5.1_[T8C]_T5.1 (ssRNA)
RNA: B9 RNA with U28G, G31C, G33A
B26: Ib_S4_P5E.1_K5.1_C5.1_H5.1_[A4G]_A5.1_F5.1_[A10C]_T5.1 (ssRNA)
RNA: B9 RNA with A27G, G31U, G33C
B27: Ib_S4_P5E.1_K5.1_C5.1_H5.1_[A4T]_A5.1_F5.1_[T8G]_T5.1 (ssRNA)
RNA: B9 RNA with A27U, G33A
B28: Ib_S4_P5E.1_K5.1_C5.1_H5.1_A5.1_[T5A]_F5.1_[T8A]_T5.1 (ssRNA)
RNA: B9 RNA with U28A, G31A, G33A
B29: Ic_S4_P5E.1_K5.1_C5.1_H5.1_A5.1_F5.1_[T9A]_[A10C]_T5.1 (ssRNA)
RNA: B9 RNA with G31U, U32A, G33C
B30: Ib_S4_P5E.1_K5.1_C5.1_H5.1_[T3C]_A5.1_F5.1_[A10C]_T5.1 (ssRNA)
RNA: B9 RNA with U26C, G31U, G33C
B31: Ib_S4_P5E.1_K5.1_C5.1_H5.1_A5.1_[T6A]_F5.1_[T8A]_T5.1 (ssRNA)
RNA: B9 RNA with U29A, G31A, G33A
B32: Ib_S4_P5E.1_K5.1_C5.1_H5.1_[A4C]_A5.1_F5.1_[T8C]_T5.1 (ssRNA)
RNA: B9 RNA with A27C, G31C, G33A
B33: Ib_S4_P5E.1_K5.1_C5.1_H5.1_[G2A]_A5.1_F5.1_[T8G]_T5.1 (ssRNA)
RNA: B9 RNA with G25A, G33A
B34: Ib_S4_P5E.1_K5.1_C5.1_H5.1_A5.1_F5.1_[T8G]_[A10T]_T5.1 (ssRNA)
RNA: B9 RNA with G33U
B35: Ib_S4_P5E.1_K5.1_C5.1_H5.1_A5.1_[A7G]_F5.1_[T8C]_T5.1 (ssRNA)
RNA: B9 RNA with A30G, G31C, G33A
B36: Ib_S4_P5E.1_K5.1_C5.1_H5.1_[A4C]_A5.1_F5.1_[A10T]_T5.1 (ssRNA)
RNA: B9 RNA with A27C, G31U, G33U
B37: Ib_S4_P5E.1_K5.1_C5.1_H5.1_A5.1_F5.1_[T9G]_[A10C]_T5.1 (ssRNA)
RNA: B9 RNA with G31U, U32G, G33C
B38: Ib_S4_P5E.1_K5.1_C5.1_H5.1_[T1C]_A5.1_F5.1_[T8A]_T5.1 (ssRNA)
RNA: B9 RNA with U24C, G31A, G33A
B39: Ic_S4_P5E.1_K5.1_C5.1_H5.1_A5.1_F5.1_[T8C]_[A10G]_T5.1 (ssRNA)
RNA: B9 RNA with G31C
B40: Ib_S4_P5E.1_K5.1_C5.1_H5.1_[A4G]_A5.1_F5.1_[T8C]_T5.1 (ssRNA)
RNA: B9 RNA with A27G, G31C, G33A
B41: Ib_S4_P5E.1_K5.1_C5.1_H5.1_[T1G]_A5.1_F5.1_[T9A]_T5.1 (ssRNA)
RNA: B9 RNA with U24G, G31U, U32A, G33A
B42: Ib_S4_P5E.1_K5.1_C5.1_H5.1_[T3C]_A5.1_F5.1_[T8A]_T5.1 (ssRNA)
RNA: B9 RNA with U26C, G31A, G33A
B43: Ib_S4_P5E.1_K5.1_C5.1_H5.1_A5.1_F5.1_[T9A]_[A10T]_T5.1 (ssRNA)
RNA: B9 RNA with G31U, U32A, G33U
B44: Ib_S4_P5E.1_K5.1_C5.1_H5.1_[A4C]_A5.1_F5.1_[T8A]_T5.1 (ssRNA)
RNA: B9 RNA with A27C, G31A, G33A

Biological target: T1, PUF4 RNA-binding domain
Assay: Mg; RNA-MaP; 20 mM Na-HEPES pH 7.4, 30 mM KOAc, 0.75 mM MgCl2, 0.1% Tween-20, 5% glycerol, 0.1 mg/mL BSA, 2 mM DTT; 25 C; 0.0125-409.6 nM protein
Details: tags: N-His6-TEV cleaved; C-SNAP kept, Cy3B-labelled; label: tethered on chip by stalled RNA polymerase

| Binder | Kd [nM] |
| --- | --- |
| B1 | 0.977 |
| B2 | 253 |
| B3 | 10.3 |
| B4 | 1.36 |
| B5 | 5.79 |
| B6 | 1.25 |
| B7 | 2.33 |
| B8 | 21 |
| B9 | 488 |
| B10 | > 2300 |
| B11 | 5.07 |
| B12 | 478 |
| B13 | 3.13 |
| B14 | 688 |
| B15 | 10.4 |
| B16 | 3.74 |
| B17 | 57.1 |
| B18 | 259 |
| B19 | 493 |
| B20 | 119 |
| B21 | 33.2 |
| B22 | 598 |

| Binder | Kd [nM] |
| --- | --- |
| B23 | > 2300 |
| B24 | 36.4 |
| B25 | 13.1 |
| B26 | 105 |
| B27 | 107 |
| B28 | 13.8 |
| B29 | 7.38 |
| B30 | 1790 |
| B31 | 9.5 |
| B32 | 35.7 |
| B33 | 628 |
| B34 | 393 |
| B35 | 14.9 |
| B36 | 201 |
| B37 | 37 |
| B38 | 964 |
| B39 | 50.3 |
| B40 | 28.4 |
| B41 | 1300 |
| B42 | 1010 |
| B43 | 1.18 |
| B44 | 26.8 |
